Data set [1] has as its system HeLa Kyoto. Description: melting temperature (median over replicates), in situ; higher = more thermally stable.
Data set [2] relates to HeLa Kyoto. Description: solubility in G1/S (NP-40 vs SDS abundance) (log2 ratio); higher = more soluble. To be noted: cell cycle stage: G1/S.
Data set [3] relates to HeLa Kyoto. In words: solubility change mitosis vs G1/S (difference of NP-40 vs SDS log2 ratios) (log2 ratio difference); higher = more soluble in mitosis.
Data set [4] relates to HeLa Kyoto. Description: thermal stability score vs G1/S (z-score of summed log2 fold changes over temperatures); higher = more thermally stable than in G1/S.
Setting [5] is: cell cycle stage: early G1 (4.5 h after nocodazole release).
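Throughout, for melting temperature (median over replicates), in situ: HeLa Kyoto cells synchronized by double thymidine or nocodazole block, proteins quantified by TMT10plex mass spectrometry, three independent biological replicates.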
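Throughout, for solubility change mitosis vs G1/S (difference of NP-40 vs SDS log2 ratios): synchronized HeLa Kyoto cells (double thymidine block for G1/S, nocodazole release for mitosis), protein amounts in NP-40 versus SDS lysates quantified by mass spectrometry, three biological replicates.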
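Throughout, for solubility in G1/S (NP-40 vs SDS abundance): HeLa Kyoto cells arrested at G1/S by double thymidine block, proteins quantified by TMT10plex mass spectrometry in mild NP-40 versus SDS extracts, three biological replicates.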
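Throughout, for thermal stability score vs G1/S (z-score of summed log2 fold changes over temperatures): synchronized HeLa Kyoto cells, proteins quantified by TMT10plex mass spectrometry, three biological replicates, mitosis taken 0.5 h after nocodazole release, G1/S directly after double thymidine block.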

Sequence of PPP2R5D (chain, as listed by the source): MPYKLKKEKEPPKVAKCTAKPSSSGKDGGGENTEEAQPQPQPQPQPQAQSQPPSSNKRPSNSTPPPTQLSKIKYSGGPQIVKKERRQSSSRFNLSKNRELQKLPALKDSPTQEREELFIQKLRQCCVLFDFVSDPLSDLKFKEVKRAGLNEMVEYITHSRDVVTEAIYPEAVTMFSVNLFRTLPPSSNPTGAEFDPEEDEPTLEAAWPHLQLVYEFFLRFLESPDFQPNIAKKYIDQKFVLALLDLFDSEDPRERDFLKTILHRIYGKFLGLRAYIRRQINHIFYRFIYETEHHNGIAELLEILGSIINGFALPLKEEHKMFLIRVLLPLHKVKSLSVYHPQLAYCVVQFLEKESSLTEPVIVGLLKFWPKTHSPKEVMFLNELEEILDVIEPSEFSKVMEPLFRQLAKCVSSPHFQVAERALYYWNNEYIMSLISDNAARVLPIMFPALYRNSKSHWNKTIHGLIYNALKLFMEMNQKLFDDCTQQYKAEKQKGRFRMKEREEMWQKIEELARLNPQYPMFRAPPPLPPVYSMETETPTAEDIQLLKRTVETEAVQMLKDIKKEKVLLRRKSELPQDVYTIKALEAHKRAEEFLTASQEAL

For “MSSVSPIQIPSRLPLLLTHEGVLLPGSTMRTSVDSARNLQLVRSRLLKGTSLQSTILGVIPNTPDPASDAQDLPPLHRIGTAALAVQVVGSNWPKPHYTLLITGLCRFQIVQVLKEKPYPIAEVEQLDRLEEFPNTCKMREELGELSEQFYKYAVQLVEMLDMSVPAVAKLRRLLDSLPREALPDILTSIIRTSNKEKLQILDAVSLEERFKMTIPLLVRQIEGLKLLQKTRKPKQDDDKRVIAIRPIRRITHISGTLEDEDEDEDNDDIVMLEKKIRTSSMPEQAHKVCVKEIKRLKKMPQSMPEYALTRNYLELMVELPWNKSTTDRLDIRAARILLDNDHYAMEKLKKRVLEYLAVRQLKNNLKGPILCFVGPPGVGKTSVGRSVAKTLGREFHRIALGGVCDQSDIRGHRRTYVGSMPGRIINGLKTVGVNNPVFLLDEVDKLGKSLQGDPAAALLEVLDPEQNHNFTDHYLNVAFDLSQVLFIATANTTATIPAALLDRMEIIQVPGYTQEEKIEIAHRHLIPKQLEQHGLTPQQIQIPQVTTLDIITRYTREAGVRSLDRKLGAICRAVAVKVAEGQHKEAKLDRSDVTEREGCREHILEDEKPESISDTTDLALPPEMPILIDFHALKDILGPPMYEMEVSQRLSQPGVAIGLAWTPLGGEIMFVEASRMDGEGQLTLTGQLGDVMKESAHLAISWLRSNAKKYQLTNAFGSFDLLDNTDIHLHFPAGAVTKDGPSAGVTIVTCLASLFSGRLVRSDVAMTGEITLRGLVLPVGGIKDKVLAAHRAGLKQVIIPRRNEKDLEGIPGNVRQDLSFVTASCLDEVLNAAFDGGFTVKTRPGLLNSKL [LONP2]”, the melting temperature in the data set on HeLa Kyoto [1] (cell cycle stage: G1/S) worked out at 52.3 °C; with HeLa Kyoto [1] (cell cycle stage: mitosis), 52.1 °C. Besides, in the data set with HeLa Kyoto [2], the “solubility in G1/S (log2)” value was determined as 0.0116. Besides, in the data set on HeLa Kyoto [3], the “solubility change mitosis (log2)” value was -0.132. The thermal stability score with HeLa Kyoto [4] (setting [5]) was determined as 0.257; in the data set on HeLa Kyoto [4] (cell cycle stage: mitosis), 0.49.

Turning to “MAEVGEDSGARALLALRSAPCSPVLCAAAAAAAFPAAAPPPAPAQPQPPPGPPPPPPPPLPPGAIAGAGSSGGSSGVSGDSAVAGAAPALVAAAAASVRQSPGPALARLEGREFEFLMRQPSVTIGRNSSQGSVDLSMGLSSFISRRHLQLSFQEPHFYLRCLGKNGVFVDGAFQRRGAPALQLPKQCTFRFPSTAIKIQFTSLYHKEEAPASPLRPLYPQISPLKIHIPEPDLRSMVSPVPSPTGTISVPNSCPASPRGAGSSSYRFVQNVTSDLQLAAEFAAKAASEQQADTSGGDSPKDESKPPFSYAQLIVQAISSAQDRQLTLSGIYAHITKHYPYYRTADKGWQNSIRHNLSLNRYFIKVPRSQEEPGKGSFWRIDPASEAKLVEQAFRKRRQRGVSCFRTPFGPLSSRSAPASPTHPGLMSPRSGGLQTPECLSREGSPIPHDPEFGSKLASVPEYRYSQSAPGSPVSAQPVIMAVPPRPSSLVAKPVAYMPASIVTSQQPAGHAIHVVQQAPTVTMVRVVTTSANSANGYILTSQGAAGGSHDAAGAAVLDLGSEARGLEEKPTIAFATIPAAGGVIQTVASQMAPGVPGHTVTILQPATPVTLGQHHLPVRAVTQNGKHAVPTNSLAGNAYALTSPLQLLATQASSSAPVVVTRVCEVGPKEPAAAVAATATTTPATATTASASASSTGEPEVKRSRVEEPSGAVTTPAGVIAAAGPQGPGTGE [FOXK1]”, the melting temperature in the data set with HeLa Kyoto [1] (cell cycle stage: G1/S) worked out at 49.1 °C; in the data set with HeLa Kyoto [1] (cell cycle stage: mitosis) it was 51 °C. Moreover, the “solubility in G1/S (log2)” value in the data set with HeLa Kyoto [2] worked out at 0.588. The “solubility change mitosis (log2)” value in the data set with HeLa Kyoto [3] is -0.0982. Further, the results for the thermal stability score in the data set with HeLa Kyoto [4] (setting [5]) and with HeLa Kyoto [4] (cell cycle stage: mitosis) were 2.52 and 2.09, respectively.

Regarding “MDRRSMGETESGDAFLDLKKPPASKCPHRYTKEELLDIKELPHSKQRPSCLSEKYDSDGVWDPEKWHASLYPASGRSSPVESLKKELDTDRPSLVRRIVDPRERVKEDDLDVVLSPQRRSFGGGCHVTAAVSSRRSGSPLEKDSDGLRLLGGRRIGSGRIISARTFEKDHRLSDKDLRDLRDRDRERDFKDKRFRREFGDSKRVFGERRRNDSYTEEEPEWFSAGPTSQSETIELTGFDDKILEEDHKGRKRTRRRTASVKEGIVECNGGVAEEDEVEVILAQEPAADQEVPRDAVLPEQSPGDFDFNEFFNLDKVPCLASMIEDVLGEGSVSASRFSRWFSNPSRSGSRSSSLGSTPHEELERLAGLEQAILSPGQNSGNYFAPIPLEDHAENKVDILEMLQKAKVDLKPLLSSLSANKEKLKESSHSGVVLSVEEVEAGLKGLKVDQQVKNSTPFMAEHLEETLSAVTNNRQLKKDGDMTAFNKLVSTMKASGTLPSQPKVSRNLESHLMSPAEIPGQPVPKNILQELLGQPVQRPASSNLLSGLMGSLEPTTSLLGQRAPSPPLSQVFQTRAASADYLRPRIPSPIGFTPGPQQLLGDPFQGMRKPMSPITAQMSQLELQQAALEGLALPHDLAVQAANFYQPGFGKPQVDRTRDGFRNRQQRVTKSPAPVHRGNSSSPAPAASITSMLSPSFTPTSVIRKMYESKEKSKEEPASGKAALGDSKEDTQKASEENLLSSSSVPSADRDSSPTTNSKLSALQRSSCSTPLSQANRYTKEQDYRPKATGRKTPTLASPVPTTPFLRPVHQVPLVPHVPMVRPAHQLHPGLVQRMLAQGVHPQHLPSLLQTGVLPPGMDLSHLQGISGPILGQPFYPLPAASHPLLNPRPGTPLHLAMVQQQLQRSVLHPPGSGSHAAAVSVQTTPQNVPSRSGLPHMHSQLEHRPSQRSSSPVGLAKWFGSDVLQQPLPSMPAKVISVDELEYRQ [EIF4ENIF1]”, the results for the melting temperature in the data set with HeLa Kyoto [1] (cell cycle stage: G1/S) and in the data set with HeLa Kyoto [1] (cell cycle stage: mitosis) were 50.3 °C and 49.3 °C, respectively. The “solubility in G1/S (log2)” value in the data set with HeLa Kyoto [2] turned out to be 0.0256. Besides, in the data set on HeLa Kyoto [3], the “solubility change mitosis (log2)” value came to 0.0657. The thermal stability score is -0.104 in the data set with HeLa Kyoto [4] (setting [5]) and 0.531 with HeLa Kyoto [4] (cell cycle stage: mitosis).

With PPP2R5D, the melting temperature with HeLa Kyoto [1] (cell cycle stage: G1/S) came to 48.2 °C; in the data set with HeLa Kyoto [1] (cell cycle stage: mitosis), 48.4 °C. Besides, the “solubility in G1/S (log2)” value with HeLa Kyoto [2] was -0.0693. Further, the “solubility change mitosis (log2)” value in the data set with HeLa Kyoto [3] is 0.0185. Also, the thermal stability score in the data set with HeLa Kyoto [4] (setting [5]) is 1.54; in the data set on HeLa Kyoto [4] (cell cycle stage: mitosis), 3.42.

Consider “MAGSRQRGLRARVRPLFCALLLSLGRFVRGDGVGGDPAVALPHRRFEYKYSFKGPHLVQSDGTVPFWAHAGNAIPSSDQIRVAPSLKSQRGSVWTKTKAAFENWEVEVTFRVTGRGRIGADGLAIWYAENQGLEGPVFGSADLWNGVGIFFDSFDNDGKKNNPAIVIIGNNGQIHYDHQNDGASQALASCQRDFRNKPYPVRAKITYYQNTLTVMINNGFTPDKNDYEFCAKVENMIIPAQGHFGISAATGGLADDHDVLSFLTFQLTEPGKEPPTPDKEISEKEKEKYQEEFEHFQQELDKKKEEFQKGHPDLQGQPAEEIFESVGDRELRQVFEGQNRIHLEIKQLNRQLDMILDEQRRYVSSLTEEISKRGAGMPGQHGQITQQELDTVVKTQHEILRQVNEMKNSMSETVRLVSGMQHPGSAGGVYETTQHFIDIKEHLHIVKRDIDNLVQRNMPSNEKPKCPELPPFPSCLSTVHFIIFVVVQTVLFIGYIMYRSQQEAAAKKFF [LMAN1]”, for which the figures for the melting temperature with HeLa Kyoto [1] (cell cycle stage: G1/S) and in the data set with HeLa Kyoto [1] (cell cycle stage: mitosis) were 53.3 °C and 53.5 °C, respectively. In addition, the “solubility in G1/S (log2)” value in the data set on HeLa Kyoto [2] was determined as 0.173. Besides, the “solubility change mitosis (log2)” value in the data set on HeLa Kyoto [3] was -0.0873. For the same substance, the thermal stability score with HeLa Kyoto [4] (setting [5]) amounted to 3.5; with HeLa Kyoto [4] (cell cycle stage: mitosis), 5.07.

Source of the values: the supplement of paper PMC5998384.
